One test concerns the target T1, human HER3 receptor (human, UniProt P21860 20-643).
T1 construct: also called ErbB3
Nature of the test: method not named there (Example 1: HER3 ELISA and confocal microscopy on MCF-7 cells). On the procedure: Briefly, Nunc Maxisorb plates (cat.#464718) were coated with 1 μg/ml HER3 protein (R&D Systems cat.#348-RB), diluted in PBS at 4° C. overnight. Prior to blocking in 50 μl 2% milk-PBS+0.05% Tween 20 the plates were washed once with PBS-T. The plates were washed once with PBS-T and 20 μl of 2% milk-PBS-T, and 10 μl supernatants from FreeStyle293 transfectants were added and incubated for 1 hour at room temperature, after which the plates were washed once with PBS-T, 20 μl per well. Secondary antibody (HRP-Goat-anti-human kappa light chain, Serotec, cat.# STAR 100P) diluted 1:25000 in 2% milk-PBS-T was added to detect the antibodies bound to the wells and incubated for 1 hour at room temperature. The plates were washed once in PBS-T before addition of 25 μl substrate (Kem-En-Tec Diagnostics, cat.#4518) that was incubated for 5 min. 25 μl 1M sulphuric acid was added after the incubation to stop the reaction. Specific signal was detected on an ELISA reader at 450 nm. From the ELISA data 480 positive antibody clones were identified and selected for sequence analysis and validation of binding to HER3.
The 119 clones were screened for binding to the HER3-overexpressing breast cancer cell line (MCF-7) using confocal microscopy. 10,000 MCF-7 cells were seeded into each well of 384-well cell carrier plates (Perkin Elmer, cat.#6007439) and allowed to attach overnight. The media was again discarded and the cells were washed and fixed with 2% formaldehyde solution (Aldrich cat.#533998). After washing, 40 μl of antibody supernatant was transferred to each well and plates were incubated for 2 hours, after which the media in the wells was discarded and 30 μl new media containing 2 μg/ml of Alexa-488 labelled goat anti-human IgG (H+L, Invitrogen cat.# A11013), 2 μg/ml CellMask Blue (Invitrogen cat.# H34558) and 1 μM Hoechst 33342 (Invitrogen cat.# H3570) was added to each well and plates were incubated for another 30 minutes. The level of fluorescence was then measured using an OPERA high throughput confocal microscope (Perkin Elmer).

For test [1], the target named is T2, fully human HER3 ECD construct with N-terminal histidine tag (human, UniProt P21860 20-643).
T2 construct: extracellular domain; Transiently expressed in Hek 293 cells, purified on nickel NTA; also called fully human ECD construct
T2 sequence (P21860 20-643): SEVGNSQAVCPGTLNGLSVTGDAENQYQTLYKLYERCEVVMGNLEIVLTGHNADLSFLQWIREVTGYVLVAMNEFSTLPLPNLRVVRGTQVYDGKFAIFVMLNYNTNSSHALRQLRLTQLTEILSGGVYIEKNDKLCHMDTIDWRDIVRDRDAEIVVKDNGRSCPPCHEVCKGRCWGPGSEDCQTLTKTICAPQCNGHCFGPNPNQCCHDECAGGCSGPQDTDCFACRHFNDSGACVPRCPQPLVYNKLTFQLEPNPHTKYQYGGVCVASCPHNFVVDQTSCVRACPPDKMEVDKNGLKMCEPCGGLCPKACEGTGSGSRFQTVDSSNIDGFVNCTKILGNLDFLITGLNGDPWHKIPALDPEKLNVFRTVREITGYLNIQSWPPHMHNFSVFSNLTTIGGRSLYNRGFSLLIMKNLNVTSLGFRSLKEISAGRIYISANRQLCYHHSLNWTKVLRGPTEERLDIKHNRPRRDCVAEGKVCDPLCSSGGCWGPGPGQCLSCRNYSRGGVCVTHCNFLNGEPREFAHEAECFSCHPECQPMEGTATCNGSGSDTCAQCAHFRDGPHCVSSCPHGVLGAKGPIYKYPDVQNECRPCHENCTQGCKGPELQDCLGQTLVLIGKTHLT
As to the kind of experiment: ELISA on coated His-tagged HER3 ECD constructs. An excerpt: Because the anti-HER3 antibody panel was raised in mice, antibodies are not expected to recognize epitopes present on murine HER3 due to the concept of “self tolerance”. Consequently, chimeric receptor constructs in which the human sequences coding for individual domains are replaced by murine sequences can be employed for epitope mapping purposes, since the antibodies are not expected to bind the murines sequence inserted in the human HER3 construct. Human and murine HER3 mRNA sequences (accession number M29366 and NM_{—}010153.1 respectively) were downloaded from NCBI, and extracellular domains I-IV were assigned as described by Kani et al. (J. Biol. Chem. (2005) 280:8238-8247). Chimeric human/murine domain exchange variants, in which each of the four human extracellular HER3 domains were replaced by the respective murine DNA sequence, were provided with an N-terminal histidine tag, gene synthesized and transiently expressed in Hek 293 cells. A fully human and a murine ECD construct were used as positive and negative controls, respectively. […] The next day wells were blocked with 1% BSA/PBS-T and titrations of antibodies diluted in blocking buffer were added. […]
The domain mapping of anti-HER3 antibodies is shown in FIGS. 27-32, which is a titration of anti-HER3 antibodies and negative controls against coated HER3 antigens. Bound antibody was detected with an anti-human Fc antibody. […]

Positions count from the first letter of the chain named.

T1 sequence (P21860 20-643 limits assumed): as the sequence (P21860 20-643) above

B1: antibody 4889 (antibody, human IgG1, kappa, V domains shown)
VH: EVQLVESGPGLVKPSQSLSLTCSVTGYSITSAYYWNWIRQFPGNKLEWMGYVSYDGSNTYNPSLKNRISITRDTSKNQFFLKLISLTTEDTATYYCAREGDYGYSDYWGQGTTLTVSS
VL: DIVMTQSTSSLSASLGDRVTVSCRASQDISNYLNWYQQKPDGTIKLLIYYTSRLHSGVPSRFSGSGSGTDYSLTISNLDQEDIATYFCQQSNTLPWTFGGGTKLEIKR
notes: Chimeric: murine variable regions, human kappa constant region, expressed as full-length IgG
On to B1, for which the binding result with human HER3 receptor is “binds”.

B2: antibody 5082 (antibody, human IgG1, kappa, V domains shown)
VH: B1 VH with V5K, L46V, V52I, S53G, S57R, I84N, A97S
VL: B1 VL with S7A, S30N, I44V, H55Q, T69I, D79E, I83F, A84V, N92E, I106L
notes: Chimeric: murine variable regions, human IGHG1 and kappa constant regions; also called mAb 5082
Consider B2, for which the binding result with human HER3 receptor is “binds”.

B3: antibody 5038 (antibody, human IgG1, kappa, V domains shown)
VH: EVKLVESGPGLVKPSQSLSLTCSVTGYSITSGFYWTWIRQFPGNKLEWMGFISYDGSNNYNPSLKNRISITRDTSKNQFFLKLNSVTTEDTATYYCARGGGYYGNLFDYWGQGTTLTVSS
VL: DIVMTQTTSSLSASLGDRVTISCRPSQDISNYVNWFQQKPGGTVKLLIFHTSRLHSGVPSRFSGSGSGTDYSLTISTLEQEDIAIYFCQQGITLPWTFGGGTKLEIKR
notes: as for B1
Regarding B3, in the test with human HER3 receptor, the binding result was “binds”.

B4: antibody 4785 (antibody, human IgG1, kappa, V domains shown)
VH: EVQLQQSGPELVMPGASVKISCKASGYSFTSYYVHWVKQRPGQGLEWIGWIYPGSGHTKYNEKFKDKATLTADTSSSTAYMQLSSLTSEDSAVYYCARPPYYSNYADVWGTGTTVTVSS
VL: DIVMTQSPSSLTVTAGEKVTMSCKSSQSLLNSGNQKNYLTWYQQKPGQPPKLLIYWASTRESGVPDRFTGSGSGTDFTLTISSVQAEDLAVYYCQSDYSYPYTFGGGTKLEIKR
notes: as for B1
With B4, the binding result with human HER3 receptor is given as “binds”.

B5: antibody 5143 (antibody, human IgG1, kappa, V domains shown)
VH: B4 VH with E1Q, M13K, V34I, D66G
VL: B4 VL with L39M, P49S, S96N, I112L
notes: as for B1
In the case of B5, the binding result with human HER3 receptor is “binds”.

B6: antibody 5106 (antibody, human IgG1, kappa, V domains shown)
VH: EVKLVESGGDLVKPGESLKLSCAASGFTFSSFAMSWVRQTPEKRLEWVATISDGGSHLYYPDNVKGRFTISRDNAKNNLYLQMSHLKSEDTAMYYCARGILDYWGQGTSVTVSS
VL: DIVMTQATSSLSASLGDRVTISCSASQDINNYLNWYQQKPDGTIKLLIYYTSSLHSGVPSRFSGSGSGTDYSLTISNLEPEDIATYYCQQYSRIPYTFGGGTKLEIKR
notes: as for B1
Consider B6, for which the binding result (in the test with human HER3 receptor; in test [1]) was “binds” each time.

B7: antibody 5101 (antibody, human IgG1, kappa, V domains shown)
VH: B6 VH with D10G, E16G, F32Y, A33G, S52R, S56G, H57Y, L58T, P61S, K76Q
VL: QIVLTQSPSSLSASLGDRVTISCRASQDISNYLNWFQQRPDGTVKLLIYYTSRLHSGVPSRFSGSGSGTDYSLTISNLEQEDIATYFCQQGNTLPYTFGGGTKLELKR
notes: as for B1
Regarding B7, the binding result (in the test with human HER3 receptor; in test [1]) was “binds” each time.

B8: antibody 4935 (antibody, human IgG1, kappa, V domains shown)
VH: QIQLVQSGPELVKPGASVRISCKASGYTFTSYYIHWVKQRPGQGLEWIGWIYPGNVHTKYTEKFKGKATLTADKSSSTAYMHLSSLTSEDSAVYFCVRRYGYDGDWFAYWGQGTLVTVSS
VL: DIQMTQSPASLAVSLGQRATISCRASESVDSYGNTFMHWYQQKPGQPPKLLIYRASNLESGIPARFSGSGSRTDFTLTINPVEADDVATYYCQQSNEDPWTFGGGTKLEIKR
notes: as for B1
Turning to B8, the binding result with human HER3 receptor is “binds”.

B9: antibody 5259 (antibody, human IgG1, kappa, V domains shown)
VH: EVQLVESGPGLVAPSQSLSITCTVSGFSLSRYTIHWVRQPPGKGLEWLGMIWGGGSTDYNSALKSRLSISKDNSKSQLFLKMNSLQTDDTAIYYCARKGITTTGFDYWGQGTTLTVSS
VL: NIVLTQSPAIMSASPGEKVTMTCSASSSVSYMFWYQQKPGSSPRLLIYDTSNLASGVPVRFSGSGSGTSYSLTISRMEAEDAATYYCQQLNSYPPTFGGGTKLEIKR
notes: as for B1
Regarding B9, the binding result with human HER3 receptor was “binds”.

B10: antibody 5144 (antibody, human IgG1, kappa, V domains shown)
VH: B9 VH with E1Q, V5K, T33S, I34V, S68N, S70N, L78V, L80F, I92M, A96V
VL: B9 VL with N1H, F33Y, G40R, E80D, N91S, I105L
notes: as for B1
For the molecule B10, the binding result with human HER3 receptor is reported as “binds”.
